Values belong to the binder of their own block, whether it stands above or below them.
Experiments:
[1] = target: T1, human PD-1 Fc fusion protein (Sino Biological) (human, UniProt Q15116 25-167, limits assumed); experiment: BLI, PD-1-Fc saturated with 10 ug/ml antibody, then PD-L1-Fc
T1 construct: bought; not shown: Fc of the commercial fusion protein

[2] = target: T2, human PD-1 expressed on CHO-S cells (human, UniProt Q15116 25-288); experiment: flow cytometry competition, 10 ug/ml antibody vs R-PE PD-L1-Fc on PD-1 CHO-S cells
T2 construct: also called PD-1-expressing cells

[3] = target: T2, human PD-1 expressed on CHO-S cells; experiment: flow cytometry, PD-1-transfected CHO-S cells; mAb 10 ug/ml, then R-PE PD-L1-Fc as blocked ligand
cyno PD1 = target: T3, cyno PD1 (limits assumed); experiment: as above
T3 construct: also called cynomolgus PD-1 expressed on CFSE-stained CHO-S cells
T3 receptor: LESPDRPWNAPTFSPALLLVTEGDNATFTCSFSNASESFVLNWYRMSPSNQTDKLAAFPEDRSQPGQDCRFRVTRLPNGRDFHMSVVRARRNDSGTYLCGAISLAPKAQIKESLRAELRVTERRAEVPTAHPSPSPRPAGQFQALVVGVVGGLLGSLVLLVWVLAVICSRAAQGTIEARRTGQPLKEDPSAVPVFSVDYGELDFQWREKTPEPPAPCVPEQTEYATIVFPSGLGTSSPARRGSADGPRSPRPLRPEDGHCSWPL

[4] = target: T1, human PD-1 Fc fusion protein (Sino …); experiment: BLI, PD-1-Fc saturated with 10 ug/ml antibody, then PD-L2-Fc
[5] = target: T4, His-tagged human PD-1 ECD (human, UniProt Q15116 25-170); experiment: SPR, IgG captured, monovalent PD-1 ECD analyte
T4 construct: bought from Acro Biosystems; not shown: His tag

[6] = target: T5, His-tagged cynomolgus PD-1 ECD (cynomolgus (Macaca fascicularis), UniProt Q15116 25-170 (human entry)); experiment: SPR, IgG captured, monovalent PD-1 ECD analyte
T5 construct: bought from Acro Biosystems; not shown: His tag
T5 chain: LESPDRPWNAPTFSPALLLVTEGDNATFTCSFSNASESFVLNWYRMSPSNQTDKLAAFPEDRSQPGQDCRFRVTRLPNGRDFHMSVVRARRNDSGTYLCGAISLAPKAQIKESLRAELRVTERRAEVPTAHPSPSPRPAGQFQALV
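For % of all cells in Q1 of panel PD-L1 binding (PD-L1+, CFSE- human PD1 cells) in this document: human PD-1 CHO-S cells mixed with CFSE-labelled cyno PD-1 CHO-S cells, antibody binding read with APC anti-human IgG light chain detection.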
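For % of all cells in Q4 of panel PD-L1 binding (PD-L1-, CFSE- human PD1 cells) in this document: human PD-1 CHO-S cells mixed with CFSE-labelled cyno PD-1 CHO-S cells, antibody binding read with APC anti-human IgG light chain detection.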
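For % of human PD1-gated cells in Q1 (mAb+, PD-L1-) in this document: human PD-1 CHO-S cells mixed with CFSE-labelled cyno PD-1 CHO-S cells, antibody binding read with APC anti-human IgG light chain detection.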
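For % of human PD1-gated cells in Q2 (mAb+, PD-L1+) in this document: human PD-1 CHO-S cells mixed with CFSE-labelled cyno PD-1 CHO-S cells, antibody binding read with APC anti-human IgG light chain detection.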

T4 sequence (Q15116 25-170): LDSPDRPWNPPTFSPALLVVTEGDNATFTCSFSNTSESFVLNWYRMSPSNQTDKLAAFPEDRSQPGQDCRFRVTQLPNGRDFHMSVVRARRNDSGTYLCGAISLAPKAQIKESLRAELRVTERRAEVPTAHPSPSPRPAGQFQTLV
T2 sequence (Q15116 25-288 limits assumed): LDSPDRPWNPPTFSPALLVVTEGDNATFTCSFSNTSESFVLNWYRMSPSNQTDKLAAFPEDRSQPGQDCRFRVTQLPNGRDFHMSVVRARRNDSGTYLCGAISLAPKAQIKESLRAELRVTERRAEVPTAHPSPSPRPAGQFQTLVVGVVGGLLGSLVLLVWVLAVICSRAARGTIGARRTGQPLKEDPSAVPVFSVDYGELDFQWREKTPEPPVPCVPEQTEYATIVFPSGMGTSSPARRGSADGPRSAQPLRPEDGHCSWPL
T1 sequence (Q15116 25-167 limits assumed): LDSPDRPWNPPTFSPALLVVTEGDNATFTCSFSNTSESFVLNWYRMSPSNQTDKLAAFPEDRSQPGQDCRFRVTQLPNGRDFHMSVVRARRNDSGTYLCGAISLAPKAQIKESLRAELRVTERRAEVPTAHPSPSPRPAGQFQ

B2: 12748.15381 (antibody, human IgG1, lambda, L234A L235A, V domains shown)
VH: EVQLLESGGGLVQPGGSLRLSCAASGFTFSDYAMNWVRQAPGKGLEWVAGIGNDGSYTNYGAAVKGRATISRDNSKNTLYLQMNSLRAEDTAVYYCASDIRSRNDCSYFLGGCSSGFIDVWGQGTLVTVSS
VL: SYELTQDPAVSVALGQTVRITCSGGSSYSYGWFQQKPGQAPVTVIYESNNRPSDIPDRFSGSSSGNTASLTITGAQAEDEADYYCGNADSSSGIFGSGTKVTVLG
notes: humanized, IgG1 LALA, lambda
Kd [5]: 0.054 nM
koff [5]: 0.00017 s⁻¹
kon [5]: 3.2e+06 M⁻¹ s⁻¹
Kd [6]: 0.101 nM
koff [6]: 0.00047 s⁻¹
kon [6]: 4.6e+06 M⁻¹ s⁻¹

B3: 12748.16124 (antibody, human IgG1, lambda, L234A L235A, V domains shown)
VH: B2 VH
VL: SYELTQPPSVSVSPGQTARITCSGGSSYSYGWFQQKPGQAPVTVIYESNNRPSDIPERFSGSSSGTTVTLTISGVQAEDEADYYCGNADSSSGIFGSGTKVTVLG
notes: alternative germline VL variant of 12748.15381; IgG1 LALA, lambda
Kd [5]: 0.047 nM
koff [5]: 0.00016 s⁻¹
kon [5]: 3.4e+06 M⁻¹ s⁻¹
Kd [6]: 0.081 nM
koff [6]: 0.00039 s⁻¹
kon [6]: 4.8e+06 M⁻¹ s⁻¹

B5: 12777.15382 (antibody, human IgG1, lambda, L234A L235A)
heavy: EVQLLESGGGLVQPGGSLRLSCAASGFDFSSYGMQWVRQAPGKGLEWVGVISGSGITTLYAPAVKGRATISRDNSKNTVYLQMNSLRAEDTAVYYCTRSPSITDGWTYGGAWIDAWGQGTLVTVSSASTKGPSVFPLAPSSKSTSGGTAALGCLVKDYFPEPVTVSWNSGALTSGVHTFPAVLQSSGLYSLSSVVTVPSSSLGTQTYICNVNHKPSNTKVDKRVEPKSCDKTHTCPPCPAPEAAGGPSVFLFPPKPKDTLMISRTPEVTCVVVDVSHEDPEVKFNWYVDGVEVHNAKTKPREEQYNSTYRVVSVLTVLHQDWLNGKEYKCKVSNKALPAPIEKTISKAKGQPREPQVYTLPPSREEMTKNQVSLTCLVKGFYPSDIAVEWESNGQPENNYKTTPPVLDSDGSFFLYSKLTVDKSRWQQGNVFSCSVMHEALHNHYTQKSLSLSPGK
light: SYELTQDPAVSVALGQTVRITCSGGDGSYGWFQQKPGQAPVTVIYDNDNRPSDIPDRFSGSSSGNTASLTITGAQAEDEADYYCGNADLSGGIFGSGTKVTVLGQPKANPTVTLFPPSSEELQANKATLVCLISDFYPGAVTVAWKADGSPVKAGVETTKPSKQSNNKYAASSYLSLTPEQWKSHRSYSCQVTHEGSTVEKTVAPTECS
notes: humanized, IgG1 LALA, lambda
Kd [5]: 0.337 nM
koff [5]: 8e-05 s⁻¹
kon [5]: 240000 M⁻¹ s⁻¹
Kd [6]: 0.681 nM
koff [6]: 0.00017 s⁻¹
kon [6]: 250000 M⁻¹ s⁻¹

B7: 12892.15378 (antibody, human IgG1, lambda, L234A L235A)
heavy: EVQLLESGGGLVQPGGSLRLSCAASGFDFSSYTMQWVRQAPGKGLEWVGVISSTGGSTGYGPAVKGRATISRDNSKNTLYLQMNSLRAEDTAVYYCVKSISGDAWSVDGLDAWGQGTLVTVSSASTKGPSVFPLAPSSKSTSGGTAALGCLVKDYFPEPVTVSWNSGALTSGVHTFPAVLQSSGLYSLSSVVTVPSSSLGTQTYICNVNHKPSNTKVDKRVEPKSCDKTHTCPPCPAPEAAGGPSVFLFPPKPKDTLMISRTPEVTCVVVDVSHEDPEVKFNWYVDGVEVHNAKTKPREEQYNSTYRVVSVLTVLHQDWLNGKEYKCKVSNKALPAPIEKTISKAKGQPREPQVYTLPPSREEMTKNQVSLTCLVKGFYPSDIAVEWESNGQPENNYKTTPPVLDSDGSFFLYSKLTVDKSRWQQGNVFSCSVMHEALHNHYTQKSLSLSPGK
light: SYELTQDPAVSVALGQTVRITCSGGGSAYGWYQQKPGQAPVTVIYYNNQRPSGIPDRFSGSSSGNTASLTITGAQAEDEADYYCGSYDSSAVGIFGSGTKVTVLGQPKANPTVTLFPPSSEELQANKATLVCLISDFYPGAVTVAWKADGSPVKAGVETTKPSKQSNNKYAASSYLSLTPEQWKSHRSYSCQVTHEGSTVEKTVAPTECS
notes: humanized, IgG1 LALA, lambda
Kd [5]: 0.737 nM
koff [5]: 0.00034 s⁻¹
kon [5]: 460000 M⁻¹ s⁻¹
Kd [6]: 2.34 nM
koff [6]: 0.00069 s⁻¹
kon [6]: 290000 M⁻¹ s⁻¹

B11: 12760.15375 (antibody, human IgG1, lambda, L234A L235A, V domains shown)
VH: EVQLLESGGGLVQPGGSLRLSCAASGFTFSTFNMVWVRQAPGKGLEYVAEISSDGSFTWYATAVKGRATISRDNSKNTVYLQMNSLRAEDTAVYYCAKSDCSSSYYGYSCIGIIDAWGQGTLVTVSS
VL: SYELTQDPAVSVALGQTVRITCSGGISDDGSYYYGWFQQKPGQAPVTVIYINDRRPSNIPDRFSGSSSGNTASLTITGAQAEDEADYYCGSYDSSAGVGIFGSGTKVTVLG
notes: humanized, IgG1 LALA, lambda
Kd [5]: 0.112 nM
koff [5]: 0.00014 s⁻¹
kon [5]: 1.2e+06 M⁻¹ s⁻¹
Kd [6]: 6.94 nM
koff [6]: 0.0072 s⁻¹
kon [6]: 1e+06 M⁻¹ s⁻¹

Next, values leading:

% Blocking [1]: 88%
% PD-L1 binding inhibition [2]: 88%
% of all cells in Q1 of panel PD-L1 binding (PD-L1+, CFSE- human PD1 cells) [3]: 0.59%
% of all cells in Q4 of panel PD-L1 binding (PD-L1-, CFSE- human PD1 cells) [3]: 43.8%
% of human PD1-gated cells in Q1 (mAb+, PD-L1-) [3]: 56.1%
% of human PD1-gated cells in Q2 (mAb+, PD-L1+) [3]: 5.3%
% of human PD1-gated cells in Q3 (mAb-, PD-L1+) [3]: 0.45%
% of human PD1-gated cells in Q4 (mAb-, PD-L1-) [3]: 38.2%
% of all cells in Q3 of panel PD-L1 binding (PD-L1-, CFSE+ cyno PD1 cells) (cyno PD1): 55.2%
% of cyno PD1-gated cells in Q1 (mAb+, PD-L1-) (cyno PD1): 42.9%
% of cyno PD1-gated cells in Q2 (mAb+, PD-L1+) (cyno PD1): 3.36%
% of cyno PD1-gated cells in Q3 (mAb-, PD-L1+) (cyno PD1): 1.28%
% of cyno PD1-gated cells in Q4 (mAb-, PD-L1-) (cyno PD1): 52.5%
% Blocking [4]: 77%
B1: 12892.13195 (antibody, human IgG1, lambda, L234A L235A)
heavy: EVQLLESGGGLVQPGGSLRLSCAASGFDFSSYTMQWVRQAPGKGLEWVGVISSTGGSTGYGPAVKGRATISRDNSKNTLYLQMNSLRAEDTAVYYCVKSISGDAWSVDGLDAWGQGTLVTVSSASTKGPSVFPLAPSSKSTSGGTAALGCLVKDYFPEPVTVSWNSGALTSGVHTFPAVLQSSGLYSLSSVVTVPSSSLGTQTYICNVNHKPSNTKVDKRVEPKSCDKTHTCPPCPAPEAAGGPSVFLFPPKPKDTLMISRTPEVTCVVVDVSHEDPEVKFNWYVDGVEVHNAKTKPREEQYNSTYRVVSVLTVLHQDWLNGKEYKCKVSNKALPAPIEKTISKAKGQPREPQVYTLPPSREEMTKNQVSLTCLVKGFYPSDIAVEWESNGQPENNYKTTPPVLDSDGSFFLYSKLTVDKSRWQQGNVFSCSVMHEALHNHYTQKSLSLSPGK
light: ELTQDPAVSVALGQTVRITCSGGGSAYGWYQQKPGQAPVTVIYYNNQRPSGIPDRFSGSSSGNTASLTITGAQAEDEADYYCGSYDSSAVGIFGSGTKVTVLGQPKANPTVTLFPPSSEELQANKATLVCLISDFYPGAVTVAWKADGSPVKAGVETTKPSKQSNNKYAASSYLSLTPEQWKSHRSYSCQVTHEGSTVEKTVAPTECS
notes: same as 12892.15378 but without the N-terminal SY of the light chain

Kd [5]: 0.06 nM
koff [5]: 6.9e-05 s⁻¹
kon [5]: 1.2e+06 M⁻¹ s⁻¹
Kd [6]: 0.452 nM
koff [6]: 0.0011 s⁻¹
kon [6]: 2.5e+06 M⁻¹ s⁻¹
B4: 13112.15380 (antibody, human IgG1, lambda, L234A L235A)
heavy: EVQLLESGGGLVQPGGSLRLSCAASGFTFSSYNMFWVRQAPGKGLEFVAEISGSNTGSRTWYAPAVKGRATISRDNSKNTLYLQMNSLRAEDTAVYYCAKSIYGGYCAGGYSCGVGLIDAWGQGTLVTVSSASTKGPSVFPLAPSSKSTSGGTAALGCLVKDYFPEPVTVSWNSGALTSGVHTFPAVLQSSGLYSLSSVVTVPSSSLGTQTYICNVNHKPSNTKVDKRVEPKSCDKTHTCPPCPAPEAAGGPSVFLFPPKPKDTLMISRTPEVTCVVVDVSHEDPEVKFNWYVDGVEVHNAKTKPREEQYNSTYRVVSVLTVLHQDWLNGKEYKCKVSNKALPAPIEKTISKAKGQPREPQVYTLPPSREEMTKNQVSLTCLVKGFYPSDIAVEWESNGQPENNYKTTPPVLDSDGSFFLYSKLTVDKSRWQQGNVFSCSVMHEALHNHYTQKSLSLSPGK
light: SYELTQDPAVSVALGQTVRITCSGGSSDYYGWFQQKPGQAPVTVIYYNNKRPSDIPDRFSGSSSGNTASLTITGAQAEDEADYYCGNADSSVGVFGSGTKVTVLGQPKANPTVTLFPPSSEELQANKATLVCLISDFYPGAVTVAWKADGSPVKAGVETTKPSKQSNNKYAASSYLSLTPEQWKSHRSYSCQVTHEGSTVEKTVAPTECS
notes: humanized, IgG1 LALA, lambda; whole antibody

% Blocking [1]: 53%
% PD-L1 binding inhibition [2]: 5%
% Blocking [4]: 27%
B6: 13112.13208 (antibody, human IgG1, lambda, L234A L235A)
heavy: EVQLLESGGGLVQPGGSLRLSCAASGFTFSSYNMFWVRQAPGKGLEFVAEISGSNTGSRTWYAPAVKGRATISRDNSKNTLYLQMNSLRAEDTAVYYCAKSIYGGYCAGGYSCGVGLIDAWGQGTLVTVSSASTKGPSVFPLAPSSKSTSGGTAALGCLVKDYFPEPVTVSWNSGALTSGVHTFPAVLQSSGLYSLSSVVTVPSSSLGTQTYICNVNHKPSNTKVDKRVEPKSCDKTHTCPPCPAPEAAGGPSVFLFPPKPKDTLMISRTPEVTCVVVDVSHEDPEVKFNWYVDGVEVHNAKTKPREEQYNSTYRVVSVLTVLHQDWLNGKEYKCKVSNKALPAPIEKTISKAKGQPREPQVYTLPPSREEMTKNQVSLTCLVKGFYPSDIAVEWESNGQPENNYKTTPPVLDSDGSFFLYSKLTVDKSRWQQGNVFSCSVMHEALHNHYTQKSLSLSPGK
light: ELTQDPAVSVALGQTVRITCSGGSSDYYGWFQQKPGQAPVTVIYYNNKRPSDIPDRFSGSSSGNTASLTITGAQAEDEADYYCGNADSSVGVFGSGTKVTVLGQPKANPTVTLFPPSSEELQANKATLVCLISDFYPGAVTVAWKADGSPVKAGVETTKPSKQSNNKYAASSYLSLTPEQWKSHRSYSCQVTHEGSTVEKTVAPTECS
notes: same as 13112.15380 but without the N-terminal SY of the light chain

Kd [5]: 0.542 nM
koff [5]: 0.00038 s⁻¹
kon [5]: 710000 M⁻¹ s⁻¹
Kd [6]: 2.22 nM
koff [6]: 0.0007 s⁻¹
kon [6]: 320000 M⁻¹ s⁻¹
B8: 12796.15376 (antibody, human IgG1, lambda, L234A L235A, V domains shown)
VH: EVQLLESGGGLVQPGGSLRLSCAASGFDFSSYTMQWVRQAPGKGLEWVGVISSTGGSTGYGPAVKGRATISRDNSKNTLYLQMNSLRAEDTAVYYCVKSVSGDAWSVDGLDAWGQGTLVTVSS
VL: SYELTQDPAVSVALGQTVRITCSGGGSAYGWYQQKPGQAPVTVIYYNNQRPSDIPDRFSGSSSGNTASLTITGAQAEDEADYYCGSYDSSAVGIFGSGTKVTVLG
notes: humanized, IgG1 LALA, lambda

Kd [5]: 0.558 nM
koff [5]: 0.00023 s⁻¹
kon [5]: 420000 M⁻¹ s⁻¹
Kd [6]: 0.738 nM
koff [6]: 0.00038 s⁻¹
kon [6]: 510000 M⁻¹ s⁻¹
B9: 12865.15377 (antibody, human IgG1, lambda, L234A L235A, V domains shown)
VH: EVQLLESGGGLVQPGGSLRLSCAASGFDFSDHGMQWVRQAPGKGLEYVGVIDTTGRYTYYAPAVKGRATISRDNSKNTLYLQMNSLRAEDTAVYYCAKTTCVGGYLCNTVGSIDAWGQGTLVTVSS
VL: SYELTQDPAVSVALGQTVRITCSGGGSSSYYGWYQQKPGQAPVTVIYDDTNRPSGIPDRFSGSSSGNTASLTITGAQAEDEADYYCGGYEGSSHAGIFGSGTKVTVLG
notes: humanized, IgG1 LALA, lambda

% Blocking [1]: 94%
% PD-L1 binding inhibition [2]: 87%
% of all cells in Q1 of panel PD-L1 binding (PD-L1+, CFSE- human PD1 cells) [3]: 0.73%
% of all cells in Q4 of panel PD-L1 binding (PD-L1-, CFSE- human PD1 cells) [3]: 47.6%
% of human PD1-gated cells in Q1 (mAb+, PD-L1-) [3]: 58.8%
% of human PD1-gated cells in Q2 (mAb+, PD-L1+) [3]: 5.85%
% of human PD1-gated cells in Q3 (mAb-, PD-L1+) [3]: 0.37%
% of human PD1-gated cells in Q4 (mAb-, PD-L1-) [3]: 35%
% of all cells in Q3 of panel PD-L1 binding (PD-L1-, CFSE+ cyno PD1 cells) (cyno PD1): 51.1%
% of cyno PD1-gated cells in Q1 (mAb+, PD-L1-) (cyno PD1): 47.8%
% of cyno PD1-gated cells in Q2 (mAb+, PD-L1+) (cyno PD1): 3.87%
% of cyno PD1-gated cells in Q3 (mAb-, PD-L1+) (cyno PD1): 0.99%
% of cyno PD1-gated cells in Q4 (mAb-, PD-L1-) (cyno PD1): 47.3%
% Blocking [4]: 94%
B10: 12819.13367 (antibody, human IgG1, lambda, L234A L235A)
heavy: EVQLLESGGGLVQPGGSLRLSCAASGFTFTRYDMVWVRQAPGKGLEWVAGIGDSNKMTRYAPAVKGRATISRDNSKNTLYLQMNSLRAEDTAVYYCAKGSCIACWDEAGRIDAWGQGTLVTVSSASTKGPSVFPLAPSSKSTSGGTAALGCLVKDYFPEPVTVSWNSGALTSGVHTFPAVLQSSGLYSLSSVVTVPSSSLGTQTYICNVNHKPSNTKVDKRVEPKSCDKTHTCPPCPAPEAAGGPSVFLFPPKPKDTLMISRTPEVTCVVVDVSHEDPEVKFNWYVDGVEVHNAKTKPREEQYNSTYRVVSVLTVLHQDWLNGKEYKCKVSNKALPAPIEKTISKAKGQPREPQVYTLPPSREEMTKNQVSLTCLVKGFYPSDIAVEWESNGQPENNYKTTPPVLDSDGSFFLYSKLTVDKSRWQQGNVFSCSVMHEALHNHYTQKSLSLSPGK
light: ELTQDPAVSVALGQTVRITCSGGGSYDGSSYYGWYQQKPGQAPVTVIYNNNNRPSDIPDRFSGSSSGNTASLTITGAQAEDEADYYCGSYDRPETNSDYVGMFGSGTKVTVLGQPKANPTVTLFPPSSEELQANKATLVCLISDFYPGAVTVAWKADGSPVKAGVETTKPSKQSNNKYAASSYLSLTPEQWKSHRSYSCQVTHEGSTVEKTVAPTECS

Reference: patent US20210284734A1 (SYMPHOGEN A S, published 2021)
